Data reported in paper doi:10.1101/2024.12.20.629688.

How the values were obtained:
[1] = target: myristoylated human Arf1, GTP-bound form, anchored on membrane (nanodiscs or LUVs) (human) (UniProt P84077); assay: not stated; binding of the K391A mutant, shown in Fig. SI5
[2] = target: myristoylated human Arf1, GTP-bound form, anchored on membrane (nanodiscs or LUVs) (human) (UniProt P84077)
[3] = target: myrArf1 with Glu54 mutated to Ala (human) (UniProt P84077)
[4] = target: myristoylated human Arf1, GTP-bound form, anchored on membrane (nanodiscs or LUVs) (human) (UniProt P84077); remark: listed apart in the source

Chain of myristoylated human Arf1, GTP-bound form, anchored on membrane (nanodiscs or LUVs) (human) (P84077 whole entry): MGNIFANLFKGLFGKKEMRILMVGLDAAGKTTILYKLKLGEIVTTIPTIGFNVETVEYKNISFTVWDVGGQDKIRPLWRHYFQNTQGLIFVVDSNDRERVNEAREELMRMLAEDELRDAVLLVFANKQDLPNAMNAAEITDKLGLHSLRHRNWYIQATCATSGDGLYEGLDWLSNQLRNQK
Chain of wt PZA, [325–724]ASAP1 (PH, Arf GAP and ankyrin repeat domains) (Q9QWY8 325-724): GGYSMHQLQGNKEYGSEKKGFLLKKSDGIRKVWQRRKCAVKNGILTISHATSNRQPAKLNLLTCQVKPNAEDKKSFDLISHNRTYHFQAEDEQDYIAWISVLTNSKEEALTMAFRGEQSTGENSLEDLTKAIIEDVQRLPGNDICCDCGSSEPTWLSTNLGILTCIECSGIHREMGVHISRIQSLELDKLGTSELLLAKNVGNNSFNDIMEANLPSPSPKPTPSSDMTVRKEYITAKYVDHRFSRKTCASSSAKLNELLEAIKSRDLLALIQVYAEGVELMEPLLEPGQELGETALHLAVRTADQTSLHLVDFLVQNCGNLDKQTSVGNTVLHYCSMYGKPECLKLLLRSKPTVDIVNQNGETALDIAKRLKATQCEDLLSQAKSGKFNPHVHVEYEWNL
Chain of PZA with His405 mutated to Glu (Q9QWY8 other isoform, or with tags, fused parts or gaps, change not shown): as the sequence (Q9QWY8 325-724) above, with H81E counted along it
Chain of myrArf1 with Glu54 mutated to Ala (human) (P84077 other isoform, or with tags, fused parts or gaps, change not shown): as the sequence (P84077 whole entry) above, with E54A counted along it
Chain of PZA with Lys391 mutated to Ala (Q9QWY8 other isoform, or with tags, fused parts or gaps, change not shown): as the sequence (Q9QWY8 325-724) above, with K67A counted along it
Chain of ΔN14 PZA (PZA without residues 325–338) (Q9QWY8 339-724, stated change not applied): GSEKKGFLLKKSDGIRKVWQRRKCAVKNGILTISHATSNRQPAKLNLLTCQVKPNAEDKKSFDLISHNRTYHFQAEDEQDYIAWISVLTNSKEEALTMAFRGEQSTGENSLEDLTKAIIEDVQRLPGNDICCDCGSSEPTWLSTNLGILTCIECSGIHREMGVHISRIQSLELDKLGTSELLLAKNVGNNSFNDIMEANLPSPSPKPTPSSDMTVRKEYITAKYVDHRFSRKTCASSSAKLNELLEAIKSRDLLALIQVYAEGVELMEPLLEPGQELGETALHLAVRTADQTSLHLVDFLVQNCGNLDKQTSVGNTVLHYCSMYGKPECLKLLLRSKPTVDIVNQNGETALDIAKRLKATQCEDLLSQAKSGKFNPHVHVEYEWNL
Chain of PZA with Phe438 mutated to Ala (Q9QWY8 other isoform, or with tags, fused parts or gaps, change not shown): as the sequence (Q9QWY8 325-724) above, with F114A counted along it

Substance | ArfGAP activity (C50: concentration of PZA for 50% GTP hydrolysis in 3 min), fold reduction against wild type [2] [fold] | further results
ASAP1 PH domain with Lys391 mutated to Ala (from UniProt Q9QWY8 325-451) (domain or fragment) |  | fold reduction of binding against wild type [1]: 2 fold
PZA with His405 mutated to Glu (from UniProt Q9QWY8 325-724) (domain or fragment) | 5 | 
PZA with Lys391 mutated to Ala (from UniProt Q9QWY8 325-724) (domain or fragment) | 100 | 
PZA with Phe438 mutated to Ala (from UniProt Q9QWY8 325-724) (domain or fragment) | 15 | 
wt PZA, [325–724]ASAP1 (PH, Arf GAP and ankyrin repeat domains) (from UniProt Q9QWY8 325-724) (domain or fragment) |  | ArfGAP activity (C50: concentration of PZA for 50% GTP hydrolysis in 3 min), fold reduction against wild type [3]: 70 fold
ΔN14 PZA (PZA without residues 325–338) (from UniProt Q9QWY8 339-724) (domain or fragment) |  | GAP activity relative to wt PZA (fold of wt PZA) [4]: < 0.01
